Reference: US20090156421A1 (published 2009)
Like-named read-outs stand apart in the source and are kept apart here.

Columns and labels:
[1] = target: IL-13Rα1 monomer (IL-13Rα1 extracellular domain) (human) (UniProt P78552); experiment: SPR, IL-13Rα1 immobilised, 1:1 model
[2] = target: IL-13Rα1 + IL-4R co-immobilised on one sensor chip surface (high affinity receptor) (human) (UniProt P78552); experiment: SPR, IL-13Rα1 and IL-4R co-immobilised, heterogeneous ligand model, component 2 (high affinity); column head misprinted 'Kd 2 × 10^6'
[3] = target: IL-13Rα1 + IL-4R co-immobilised on one sensor chip surface (high affinity receptor) (human) (UniProt P78552); experiment: SPR, IL-13Rα1 and IL-4R co-immobilised, against IL-13Rα1 alone
[4] = target: Cy5-IL-13Rα1 (Cy5 labeled IL-13Rα1) (human) (UniProt P78552); experiment: TR-FRET assay 1, competition with 10 nM Eu-IL-13 for 10 nM Cy5-IL-13Rα1
[5] = target: IL-13Rα1 + IL-4R co-immobilised on one sensor chip surface (high affinity receptor) (human) (UniProt P78552); experiment: SPR, IL-13Rα1 and IL-4R co-immobilised, heterogeneous ligand model, component 1 (lower affinity)
[6] = target: IL-13Rα1 monomer (IL-13Rα1 extracellular domain) (human) (UniProt P78552); experiment: SPR, IL-13Rα1 immobilised
[7] = target: Cy5-IL-13Rα1 plus IL-4R (500 nM) in solution (human) (UniProt P78552); experiment: TR-FRET assay 1, competition with Eu-IL-13, with 500 nM IL-4R, Kd calculated from IC50
[8] = target: Cy5-IL-13Rα1 plus IL-4R (500 nM) in solution (human) (UniProt P78552); experiment: TR-FRET assay 1, competition with 10 nM Eu-IL-13, 10 nM Cy5-IL-13Rα1, 500 nM IL-4R
[9] = target: Cy5-IL-13Rα1 (Cy5 labeled IL-13Rα1) (human) (UniProt P78552); experiment: TR-FRET assay 1, competition with Eu-IL-13 for Cy5-IL-13Rα1, Kd calculated from IC50
[10] = target: IL-13Rα1 + IL-4R co-immobilised on one sensor chip surface (high affinity receptor) (human) (UniProt P78552); experiment: SPR, IL-13Rα1 and IL-4R co-immobilised, heterogeneous ligand model, component 2 (high affinity)
[11] = target: IL-13R110Q/IL-13Rα1 binary complex (human) (UniProt P35225); experiment: SPR, IL-13Rα1 immobilised, 8 nM IL-13R110Q in buffer, IL-4R injected, 1:1 model
[12] = target: IL-13R110Q/IL-13Rα1 binary complex (human) (UniProt P35225); experiment: as above; remark: listed apart in the source
[13] = target: T1, Eu-IL-13 (europium chelate labeled IL-13) (human, UniProt P35225 35-146, limits assumed, europium chelate (Eu) label, directly labeled; site not stated); experiment: TR-FRET assay 1, direct: Cy5-IL-13Rα1 titrated into 10 nM Eu-IL-13, no IL-4R
T1 construct: also called Eu-labeled IL-13
Description: (§1) All TR-FRET experiments were performed on a 384-well black plate (Corning Costar, Acton, Mass.) in 20 μL final volume of PBS plus 0.1% BSA. For example, excitation and emission conditions for TR-FRET assay 1 and 2 were 345 nm and 665 nm, respectively. All TR-FRET measurements were taken using an Envision plate reader (Perkin Elmer) using the TR-FRET mode.
Binding between IL-13 and IL-13Rα¹ was analyzed using Eu-IL-13 (Eu=Europium chelate, FRET donor) and Cy5-IL-13Rα1 (Cy5=Cyanine dye, FRET acceptor) (schematic shown in FIG. 3) described in Example 5. Affinity measurements were performed by adding various concentrations of Cy5-IL-13Rα1 in the presence of 10 nM Eu-IL-13 with and without 500 nM IL-4R.

[14] = target: T1, Eu-IL-13 (europium chelate labeled …); experiment: TR-FRET assay 1, competition with 10 nM Cy5-IL-13Rα1 for 10 nM Eu-IL-13, no IL-4R
Description: as §1
(§2) Assays were performed as described in Example 5. Competition experiments were performed by adding various concentrations of unlabeled IL-13, IL-13R110Q, or IL-13Rα1 to the Eu-IL-13 (10 nM)/Cy5-IL-13Rα1 (10 nM) binary complex with or without IL-4R (500 nM).
(§3) To confirm the dissociation constant of Cy5-IL-13Rα1, a competition experiment was performed using unlabeled IL-13Rα1.

[15] = target: T2, Eu-IL-13 plus IL-4R (500 nM) in solution (human, UniProt P35225 35-146; P24394 26-232, limits assumed, europium chelate label; site not stated); experiment: TR-FRET assay 1, competition with 10 nM Cy5-IL-13Rα1 for 10 nM Eu-IL-13, with 500 nM IL-4R
T2 construct: The partners of IL-13Rα1 in the ternary format of TR-FRET assay 1
Description: as §1, §2, §3

Sequence of IL-13R110Q/IL-13Rα1 binary complex (human) (P35225 35-146, one chain of several): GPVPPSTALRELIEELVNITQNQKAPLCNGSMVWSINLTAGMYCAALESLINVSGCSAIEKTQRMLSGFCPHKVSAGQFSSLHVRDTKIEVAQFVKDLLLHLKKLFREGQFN
Sequence of IL-13Rα1 + IL-4R co-immobilised on one sensor chip surface (high affinity receptor) (human) (P24394 26-232): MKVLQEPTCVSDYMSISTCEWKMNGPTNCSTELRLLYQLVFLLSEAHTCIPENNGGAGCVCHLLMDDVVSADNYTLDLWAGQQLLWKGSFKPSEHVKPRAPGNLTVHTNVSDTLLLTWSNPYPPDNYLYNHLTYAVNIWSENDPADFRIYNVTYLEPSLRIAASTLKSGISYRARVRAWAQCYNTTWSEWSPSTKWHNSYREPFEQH
Sequence of Cy5-IL-13Rα1 plus IL-4R (500 nM) in solution (human) (P24394 26-232): as above
T1 sequence (P35225 other isoform, or with tags, fused parts or gaps limits assumed, form in doubt): as the sequence (P35225 35-146, one chain of several) above, with Q110R counted along it
T2 sequence (P35225 other isoform, or with tags, fused parts or gaps limits assumed, form in doubt, chain 1 of 2): as the sequence (P35225 35-146, one chain of several) above, with Q110R counted along it
T2 sequence (P24394 26-232 limits assumed, form in doubt, chain 2 of 2): as the sequence (P24394 26-232) above

A Kd [1] of 8.93 nM, a koff [1] of 0.015 s⁻¹ and a kon [1] of 1.68e+06 M⁻¹ s⁻¹ were found for “IL-13R110Q (from UniProt P35225 35-146) (ligand)” in this work. For the same molecule, the kon [2] was 3.77e+06 M⁻¹ s⁻¹, the fold lower Kd than to IL-13Rα1 alone [3] was 17 fold and the IC50 [4] was 27 nM. It also gave a Kd [5] of 14.5 nM, a koff [5] of 0.018 s⁻¹ and a kon [5] of 1.24e+06 M⁻¹ s⁻¹. It also gave a t½ (decay of binding) [6] of 50 s, a Kd [7] of 0.3 nM and an IC50 [8] of 12 nM. It also gave a Kd [9] of 6.7 nM, a Kd [10] of 0.53 nM and a koff [10] of 0.002 s⁻¹.

A koff [11] of 0.005 s⁻¹, a Kd [12] of 115 nM and a koff [12] of 0.0051 s⁻¹ were found for “soluble form of carrier-free human IL-4Rα monomer (R&D Systems) (from UniProt P24394 26-232) (receptor)” in this work. It also gave a kon [12] of 44000 M⁻¹ s⁻¹.

B1: Cy5-IL-13Rα1 (Cy5 labeled IL-13Rα1) (receptor, human, UniProt P78552 22-343, looked up)
chain: GGGGAAPTETQPPVTNLSVSVENLCTVIWTWNPPEGASSNCSLWYFSHFGDKQDKKIAPETRRSIEVPLNERICLQVGSQCSTNESEKPSILVEKCISPPEGDPESAVTELQCIWHNLSYMKCSWLPGRNTSPDTNYTLYYWHRSLEKIHQCENIFREGQYFGCSFDLTKVKDSSFEQHSVQIMVKDNAGKIKPSFNIVPLTSRVKPDPPHIKNLSFHNDDLYVQWENPQNFISRCLFYEVEVNNSQTETHNVFYVQEAKCENPEFERNVENTSCFMVPGVLPDTLNTVRIRVKTNKLCYEDDKLWSNWSQEMSIGKKRNST
modifications: Cy5 label, directly labeled; site not stated
notes: extracellular domain; also called IL-13R-Cys5; Cy5-IL-13RI1
An EC50 [13] of 10 nM was found for B1 in this work.

B2: IL-13Rα1 monomer (IL-13Rα1 extracellular domain) (receptor, human, UniProt P78552 22-343, looked up)
chain: B1 chain
notes: extracellular domain; Expressed and purified as in Yang et al. 2006; also called IL-13RI1; IL-13R1
An IC50 [14] of 20 nM and an IC50 [15] of 11 nM were found for B2 in this work.
